Changes are numbered by the printed parent chain. One block for each binder: values may come before it.
Tests used:
[1] = target: EphA4 (homologous receptor, screening at Integral Molecular) (UniProt P54764 20-986, limits assumed); experiment: screening at Integral Molecular
[2] = target: T1, mouse EphA2 on mouse tumor cells (CT26, EMT6, MC38, RENCA) (mouse, UniProt Q03145 26-977); experiment: flow cytometry, surface binding on CT26 cells (in vitro)
T1 construct: whole, on cells
Description: (§1) Surface binding of the antibodies to in vitro grown cell lines was assessed by flow cytometry. Tumor cells were detached from their culture plate using Versene and counted. Cells were staining in BSA-containing buffer with primary antibody for 30 minutes at 4° C. with shaking. Following, cells were washed and stained with secondary PE-labeled antibody for 30 minutes at 4° C. with shaking. Before analysis on an Intellicyt iQue3 scanner, cells were counterstained with DAPI. MedFI values from live, single cells was expressed as fold over isotype control.

[3] = target: T2, EphA4_ECD (aa 23-546), full ECD, displayed on yeast (human, UniProt P54764 23-546); experiment: yeast surface display, flow cytometry titration of AB-008873
T2 construct: also called EphA4 full ECD; not shown: Aga2 fusion partner followed by an internal HA tag; C-terminal Myc tag
Description: Yeast cells were cultured in SDCAA (Teknova, S0543) and induced with SGCAA (Teknova, 50542). Cells were stained with pairs of primary and secondary antibodies. […] Chicken IgY anti-cMyc (Life technologies A21281) and Goat anti Chicken IgY FITC (Life technologies A11039) were used to assess expression levels. The analysis was run on the iQue3 flow cytometer. […] The FN2 domain of EphA2 alone is sufficient to mediate binding and expresses at high levels. […] FIG. 6. […] FN2 domain alone also has high relative expression. […] Swapping the FN1 domain from EphA4 into EphA2 enables binding of the epitope (diamond). Binding is lost when the FN2 domain from EphA4 is swapped into EphA2.

FcGR1 = target: T3, FcGR1 (human, UniProt P12314 16-374); experiment: flow cytometry, 6,000 human membrane proteins expressed on the surface of HEK293 cells
T3 construct: whole, on cells; An Fc receptor

[4] = target: T4, human EphA2 (ephrin receptor A2), on cells (human, UniProt P29317 24-976); experiment: flow cytometry binding on A549 cells
T4 construct: Used for HEK293 transfectants, A549 and other human tumor cell lines
Description: as §1

[5] = target: T4, human EphA2 (ephrin receptor A2), on …; experiment: flow cytometry binding on A549 cells, MedFI
Description: as §1

hEphA2-FN12-(327-534)-Fc = target: T5, hEphA2-FN12-(327-534)-Fc (human, UniProt P29317 327-534); experiment: SPR Biacore, 25 C, EphA2-Fc captured by anti-human Fc, Fab as analyte, 1:1 Langmuir
T5 construct: Captured by anti-human Fc on a CM5 chip; also called FN1-FN2 domains of EphA2 fused to human Fc
Description: (§2) The hEphA2-Fc fusions were captured with an anti-human Fc immobilized to a CM5 chip. Biacore® assays were conducted at 25° C. using HBS-EP+ buffer (0.01 M HEPES pH 7.4, 0.15 M NaCl, 3 mM EDTA, 0.005% v/v Surfactant P20). Data was double-reference subtracted and data was analyzed using 1:1 Langmuir binding model and steady-state model in Biacore Evaluation software.
(§3) Binding to hEphA2-ECD-Fc tested using 100, 300, and 900 nM analyte. Binding to all other ligands tested using 33.3, 100, and 300 nM analyte.

hEphA2-FN2-(437-534)-Fc = target: T6, hEphA2-FN2-(437-534)-Fc (human, UniProt P29317 437-534); experiment: as above
T6 construct: Captured by anti-human Fc on a CM5 chip; also called FN2 domain of EphA2 fused to human Fc
Description: as §2, §3

hEphA2-clv385-534-Fc = target: T7, hEphA2-clv385-534-Fc (human, UniProt P29317 385-534); experiment: as above
T7 construct: Recombinant fragment representing a cleavage form
Description: as §2, §3

hEphA2-clv395-534-Fc = target: T8, hEphA2-clv395-534-Fc (human, UniProt P29317 395-534); experiment: as above
T8 construct: Recombinant fragment representing a cleavage form
Description: as §2, §3

hEphA2-clv432-534-Fc = target: T9, hEphA2-clv432-534-Fc (human, UniProt P29317 432-534); experiment: as above
T9 construct: Recombinant fragment representing a cleavage form
Description: as §2, §3

hEphA2-clv435-534-Fc = target: T10, hEphA2-clv435-534-Fc (human, UniProt P29317 435-534); experiment: as above
T10 construct: Recombinant fragment representing a cleavage form
Description: as §2, §3

[6] = target: T4, human EphA2 (ephrin receptor A2), on …; experiment: flow cytometry on A549 cells
Description: as §1

[7] = target: T4, human EphA2 (ephrin receptor A2), on …; experiment: flow cytometry on A549 cells, EC50 column

T10 sequence (P29317 435-534): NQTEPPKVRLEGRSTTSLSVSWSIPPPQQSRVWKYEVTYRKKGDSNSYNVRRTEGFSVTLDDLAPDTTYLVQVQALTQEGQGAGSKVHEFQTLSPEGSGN
T7 sequence (P29317 385-534): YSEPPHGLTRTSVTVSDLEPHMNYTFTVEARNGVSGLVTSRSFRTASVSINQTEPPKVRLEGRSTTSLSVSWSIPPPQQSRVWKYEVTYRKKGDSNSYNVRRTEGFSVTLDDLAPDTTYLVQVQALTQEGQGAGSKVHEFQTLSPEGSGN
T5 sequence (P29317 327-534): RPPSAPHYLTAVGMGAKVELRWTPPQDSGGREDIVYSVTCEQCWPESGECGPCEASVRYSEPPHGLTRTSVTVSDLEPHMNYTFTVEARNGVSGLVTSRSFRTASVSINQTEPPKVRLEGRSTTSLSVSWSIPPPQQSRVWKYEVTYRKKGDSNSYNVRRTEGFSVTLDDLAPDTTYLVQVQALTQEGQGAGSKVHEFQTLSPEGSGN
T4 sequence (P29317 24-976 limits assumed): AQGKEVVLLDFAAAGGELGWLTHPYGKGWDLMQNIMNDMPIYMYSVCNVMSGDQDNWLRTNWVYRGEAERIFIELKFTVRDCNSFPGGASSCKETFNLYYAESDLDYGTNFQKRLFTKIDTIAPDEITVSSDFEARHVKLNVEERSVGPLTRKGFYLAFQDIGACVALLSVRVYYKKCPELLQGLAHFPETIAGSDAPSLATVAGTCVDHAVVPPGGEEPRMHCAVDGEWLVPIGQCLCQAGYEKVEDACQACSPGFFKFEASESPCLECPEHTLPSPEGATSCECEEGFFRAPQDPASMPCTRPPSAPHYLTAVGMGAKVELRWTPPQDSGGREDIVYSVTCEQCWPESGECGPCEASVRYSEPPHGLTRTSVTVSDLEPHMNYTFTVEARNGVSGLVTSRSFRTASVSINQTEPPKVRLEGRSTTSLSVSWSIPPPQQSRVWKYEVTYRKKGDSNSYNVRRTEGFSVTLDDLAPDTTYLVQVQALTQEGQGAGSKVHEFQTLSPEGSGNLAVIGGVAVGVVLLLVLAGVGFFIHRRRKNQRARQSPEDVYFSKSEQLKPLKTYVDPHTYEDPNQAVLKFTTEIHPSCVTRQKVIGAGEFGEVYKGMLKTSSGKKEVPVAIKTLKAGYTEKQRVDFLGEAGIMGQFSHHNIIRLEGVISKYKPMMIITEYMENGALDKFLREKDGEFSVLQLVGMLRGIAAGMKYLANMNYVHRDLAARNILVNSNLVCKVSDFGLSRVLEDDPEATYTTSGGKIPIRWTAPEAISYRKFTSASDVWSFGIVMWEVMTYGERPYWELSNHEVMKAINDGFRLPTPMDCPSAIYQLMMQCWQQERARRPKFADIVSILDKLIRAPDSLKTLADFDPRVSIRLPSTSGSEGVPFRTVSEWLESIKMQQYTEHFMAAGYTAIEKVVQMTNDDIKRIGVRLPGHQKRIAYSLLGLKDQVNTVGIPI
T9 sequence (P29317 432-534): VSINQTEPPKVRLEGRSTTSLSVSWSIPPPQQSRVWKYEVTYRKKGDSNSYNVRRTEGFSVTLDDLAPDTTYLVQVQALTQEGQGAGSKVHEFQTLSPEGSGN
T8 sequence (P29317 395-534): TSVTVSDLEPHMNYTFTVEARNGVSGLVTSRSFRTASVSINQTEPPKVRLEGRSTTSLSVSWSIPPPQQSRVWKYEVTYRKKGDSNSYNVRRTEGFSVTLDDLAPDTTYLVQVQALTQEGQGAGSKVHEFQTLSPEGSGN
T6 sequence (P29317 437-534): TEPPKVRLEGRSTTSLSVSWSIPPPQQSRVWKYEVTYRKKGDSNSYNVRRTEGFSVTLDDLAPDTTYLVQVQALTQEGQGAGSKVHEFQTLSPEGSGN
T1 sequence (Q03145 26-977): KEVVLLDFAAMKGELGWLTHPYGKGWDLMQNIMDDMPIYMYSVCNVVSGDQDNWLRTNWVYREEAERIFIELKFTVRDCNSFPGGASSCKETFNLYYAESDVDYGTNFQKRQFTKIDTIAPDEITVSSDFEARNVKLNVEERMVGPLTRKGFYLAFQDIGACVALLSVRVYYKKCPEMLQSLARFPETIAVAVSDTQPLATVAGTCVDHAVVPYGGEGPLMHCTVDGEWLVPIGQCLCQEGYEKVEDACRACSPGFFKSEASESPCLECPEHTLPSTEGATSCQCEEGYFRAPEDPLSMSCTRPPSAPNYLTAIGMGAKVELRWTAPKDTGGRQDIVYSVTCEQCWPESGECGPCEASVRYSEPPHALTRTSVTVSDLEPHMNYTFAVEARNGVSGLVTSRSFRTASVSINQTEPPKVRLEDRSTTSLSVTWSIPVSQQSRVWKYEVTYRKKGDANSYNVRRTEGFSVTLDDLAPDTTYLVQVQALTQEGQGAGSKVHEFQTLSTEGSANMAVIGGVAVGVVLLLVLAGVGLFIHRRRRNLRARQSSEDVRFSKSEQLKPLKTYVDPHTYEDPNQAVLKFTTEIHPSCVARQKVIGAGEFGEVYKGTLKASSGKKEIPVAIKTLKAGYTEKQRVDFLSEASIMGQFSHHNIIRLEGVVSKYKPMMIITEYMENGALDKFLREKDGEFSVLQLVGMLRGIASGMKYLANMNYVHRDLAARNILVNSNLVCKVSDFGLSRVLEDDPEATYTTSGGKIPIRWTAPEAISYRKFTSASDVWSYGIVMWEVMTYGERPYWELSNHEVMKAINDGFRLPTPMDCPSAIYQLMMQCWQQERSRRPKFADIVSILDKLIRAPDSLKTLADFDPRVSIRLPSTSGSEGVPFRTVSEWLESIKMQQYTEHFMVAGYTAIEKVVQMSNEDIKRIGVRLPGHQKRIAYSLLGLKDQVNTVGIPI
T3 sequence (P12314 16-374): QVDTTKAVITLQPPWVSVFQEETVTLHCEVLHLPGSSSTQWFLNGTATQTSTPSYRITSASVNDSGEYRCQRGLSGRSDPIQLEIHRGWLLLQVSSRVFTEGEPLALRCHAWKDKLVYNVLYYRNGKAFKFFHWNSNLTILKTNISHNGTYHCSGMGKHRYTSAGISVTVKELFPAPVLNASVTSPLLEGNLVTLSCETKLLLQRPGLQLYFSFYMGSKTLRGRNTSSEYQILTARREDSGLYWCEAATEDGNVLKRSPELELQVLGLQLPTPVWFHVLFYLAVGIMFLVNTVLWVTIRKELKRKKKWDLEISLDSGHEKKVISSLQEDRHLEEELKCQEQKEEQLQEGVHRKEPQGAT
T2 sequence (P54764 23-546): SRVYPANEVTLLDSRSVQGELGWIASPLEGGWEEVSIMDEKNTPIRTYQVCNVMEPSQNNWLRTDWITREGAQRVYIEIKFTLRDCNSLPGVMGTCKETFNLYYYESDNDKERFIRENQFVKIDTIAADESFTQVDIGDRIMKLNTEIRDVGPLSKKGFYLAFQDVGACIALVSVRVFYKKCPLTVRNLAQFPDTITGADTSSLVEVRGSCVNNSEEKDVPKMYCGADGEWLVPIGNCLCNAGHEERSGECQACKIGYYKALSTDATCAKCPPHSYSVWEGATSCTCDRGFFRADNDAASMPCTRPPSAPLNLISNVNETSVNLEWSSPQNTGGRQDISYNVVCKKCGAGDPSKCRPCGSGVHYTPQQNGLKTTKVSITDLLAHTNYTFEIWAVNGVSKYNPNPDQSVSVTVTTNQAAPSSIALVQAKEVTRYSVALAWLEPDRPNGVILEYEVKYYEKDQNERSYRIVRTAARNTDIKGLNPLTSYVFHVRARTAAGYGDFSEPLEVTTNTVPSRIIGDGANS
EphA4 (homologous receptor, screening at Integral Molecular), sequence (P54764 20-986 limits assumed): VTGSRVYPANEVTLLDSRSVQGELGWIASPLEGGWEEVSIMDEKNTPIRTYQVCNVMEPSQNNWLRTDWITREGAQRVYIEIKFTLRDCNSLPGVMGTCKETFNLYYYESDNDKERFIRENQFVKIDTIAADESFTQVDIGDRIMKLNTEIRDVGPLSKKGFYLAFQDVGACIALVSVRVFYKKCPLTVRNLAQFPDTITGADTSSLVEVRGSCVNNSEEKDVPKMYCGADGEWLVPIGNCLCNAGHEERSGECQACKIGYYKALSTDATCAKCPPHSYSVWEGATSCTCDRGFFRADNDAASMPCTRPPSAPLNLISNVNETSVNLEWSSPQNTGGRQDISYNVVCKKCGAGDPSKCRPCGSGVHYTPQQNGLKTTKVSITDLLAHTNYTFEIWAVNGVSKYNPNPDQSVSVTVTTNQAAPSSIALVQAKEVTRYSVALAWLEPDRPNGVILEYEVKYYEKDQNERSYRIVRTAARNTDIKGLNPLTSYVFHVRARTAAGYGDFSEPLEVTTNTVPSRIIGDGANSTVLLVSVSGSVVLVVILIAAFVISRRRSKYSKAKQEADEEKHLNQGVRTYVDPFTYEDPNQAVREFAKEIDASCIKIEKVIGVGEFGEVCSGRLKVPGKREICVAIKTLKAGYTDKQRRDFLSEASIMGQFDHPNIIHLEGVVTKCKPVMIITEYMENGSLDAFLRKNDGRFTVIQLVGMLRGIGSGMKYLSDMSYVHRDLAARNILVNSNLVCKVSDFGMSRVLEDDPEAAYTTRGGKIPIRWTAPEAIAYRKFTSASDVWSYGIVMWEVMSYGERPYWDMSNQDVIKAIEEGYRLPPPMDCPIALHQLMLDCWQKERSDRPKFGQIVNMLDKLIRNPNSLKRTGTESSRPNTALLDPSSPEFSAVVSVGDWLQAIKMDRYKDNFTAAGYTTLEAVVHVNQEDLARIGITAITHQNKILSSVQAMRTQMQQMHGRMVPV

- binding result [1]: no binding
- fold over isotype control (MedFI) [2]: 16 fold
- binding result [3]: no binding (tested: about 300 nM)
- binding result (FcGR1): binds
B1: AB-008873 (mouse IgG2a format) (antibody)
heavy: QVQLQQWGAGLLKPSETLSLTCAVYGGSFSDYYWSWIRQPPGKGLEWIGEVNHRGSINYNNYNPSLKSRVTISVDPSKNQFSLKLTSVTAADTAVYYCAKPLRPHCTNGVCYSGDAFDIWGQGTMVTVASAKTTAPSVYPLAPVCGDTTGSSVTLGCLVKGYFPEPVTLTWNSGSLSSGVHTFPAVLQSDLYTLSSSVTVTSSTWPSQSITCNVAHPASSTKVDKKIEPRGPTIKPCPPCKCPAPNLLGGPSVFIFPPKIKDVLMISLSPIVTCVVVDVSEDDPDVQISWFVNNVEVHTAQTQTHREDYNSTLRVVSALPIQHQDWMSGKEFKCKVNNKDLPAPIERTISKPKGSVRAPQVYVLPPPEEEMTKKQVTLTCMVTDFMPEDIYVEWTNNGKTELNYKNTEPVLDSDGSYFMYSKLRVEKKNWVERNSYSCSVVHEGLHNHHTTKSFSRTPG
light: SYVLTQPPSVSVAPGQTARITCGGNNIGSKNVHWYQQKPGQAPVLVVYDDSDRPSGIPEQFSGSNSGNTATLTISRVEAGDEADYYCQVWDSSSDHLVFGGGTKLTVLGQPKSSPSVTLFPPSSEELETNKATLVCTITDFYPGVVTVDWKVDGTPVTQGMETTQPSKQSNNKYMASSYLTLTARAWERHSSYSCQVTHEGHTVEKSLSRADCS

- Kd (hEphA2-FN12-(327-534)-Fc): 8.6 nM
- koff (hEphA2-FN12-(327-534)-Fc): 0.043 s⁻¹
- kon (hEphA2-FN12-(327-534)-Fc): 5e+06 M⁻¹ s⁻¹
- Kd (hEphA2-FN2-(437-534)-Fc): 8.6 nM
- koff (hEphA2-FN2-(437-534)-Fc): 0.085 s⁻¹
- kon (hEphA2-FN2-(437-534)-Fc): 1e+07 M⁻¹ s⁻¹
- Kd (hEphA2-clv385-534-Fc): 12 nM
- koff (hEphA2-clv385-534-Fc): 0.072 s⁻¹
- kon (hEphA2-clv385-534-Fc): 6.05e+06 M⁻¹ s⁻¹
- Kd (hEphA2-clv395-534-Fc): 12 nM
- koff (hEphA2-clv395-534-Fc): 0.07 s⁻¹
- kon (hEphA2-clv395-534-Fc): 5.72e+06 M⁻¹ s⁻¹
- Kd (hEphA2-clv432-534-Fc): 9.6 nM
- koff (hEphA2-clv432-534-Fc): 0.075 s⁻¹
- kon (hEphA2-clv432-534-Fc): 7.78e+06 M⁻¹ s⁻¹
- Kd (hEphA2-clv435-534-Fc): 9.3 nM
- koff (hEphA2-clv435-534-Fc): 0.078 s⁻¹
- kon (hEphA2-clv435-534-Fc): 8.42e+06 M⁻¹ s⁻¹
B3: AB-010699 human Fab fragment (Fab, V domains shown)
VH: QVQLQQWGAGLLKPSETLSLTCAVYGGSFSGYYWSWIRQPPGKGLEWIGEINHRGSINYNNYNPSLKSRVTISVDTSKNQFSLKLSSVTAADTAVYYCAKPLRPHCINGVCYSGDAFDIWGQGTMVTVAS
VL: SYVLTQPPSVSVAPGQTARITCGGNNIGYKNVHWYQQKPGQAPVLVVYDDSDRPSGIPERFSGSNSGNTATLTISRVEAGDEADYYCQVWDHSSDHVVFGGGTKLTVL
notes: Human Fab fragment

The next lines start with the binder.

B2: AB-009806 (antibody, mouse IgG2a, V domains shown)
VH: QVQLQQWGAGLLKPSETLSLTCAVYGGSFSDYYWSWIRQPPGKGLEWIGEINHSGSTNYNPSLKSRVTISVDPSKNQFSLKLTSVTAADTAVYYCAKPFRPHCTNGVCYSGDAFDIWGQGTMVTVSS
VL: B3 VL with Y29T, R60Q, H92S, V97L
- Flow Delta activity (MedFI) [4]: 231000 MedFI
- EC50 (read off the curve) [5]: ~20 nM

B4: AB-009817 (antibody, mouse IgG2a, V domains shown)
VH: B3 VH with G31D, I51V, T76P, S86T, I107T, G109A
VL: B3 VL with Y29S, R60Q, H92S, V97L
- Delta (flow) [6]: 0
- binding result [7]: no binding

— US20250051464A1 (IMMUNOME, published 2025)
